Source: paper PMC5103072, “Cryo-EM study of start codon selection during archaeal translation initiation” (Nature Communications, 2016)

Molecular target: T1, Pa-aIF2γ (γ-subunit of archaeal translation initiation factor 2 from Pyrococcus abyssi), native version (Pyrococcus abyssi, UniProt Q9V1G0 1-411)
T1 construct: aIF2 γ-subunit from Pyrococcus abyssi, native (untagged) version; Stood in the assay as part of the aIF2 heterotrimer with GDPNP and Met-tRNA; The deposited models use the S. solfataricus ternary complex (PDB 3V11) as the fitted component; source: cells overproducing the subunit, mixed with cells overproducing α and β; heterotrimer purified (heating at 80 °C, Q-Hiload, S-Hiload, Superdex 200)
T1 sequence (looked up): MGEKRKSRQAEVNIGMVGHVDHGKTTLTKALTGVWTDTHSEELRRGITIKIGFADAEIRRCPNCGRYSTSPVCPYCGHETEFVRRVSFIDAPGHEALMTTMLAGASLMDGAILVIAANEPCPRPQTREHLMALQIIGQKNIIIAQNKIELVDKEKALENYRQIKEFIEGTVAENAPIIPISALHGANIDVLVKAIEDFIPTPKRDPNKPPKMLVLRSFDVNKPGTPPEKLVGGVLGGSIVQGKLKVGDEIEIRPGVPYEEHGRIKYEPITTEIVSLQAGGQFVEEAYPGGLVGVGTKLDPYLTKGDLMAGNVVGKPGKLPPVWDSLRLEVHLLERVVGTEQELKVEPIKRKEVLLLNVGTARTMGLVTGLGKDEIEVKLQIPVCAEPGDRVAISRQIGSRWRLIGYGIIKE
Experiment: cryo-EM structure; full 30S initiation complex (Pa-30S, synthetic mRNA, Met-tRNAfMet A1-U72, GDPNP, Pa-aIF1, Pa-aIF1A, Pa-aIF2) assembled at 51 °C in IC buffer (10 mM Hepes pH 7.5, 100 mM NH4Cl, 10 mM magnesium acetate, 3 mM 2-mercaptoethanol), purified on Talon; class IC0-P_(REMOTE), tRNA out of the P site, 5.34 Å overall resolution; known structures of homologous components fitted
Conditions: both partners purified

binding result: binds
B1: Pa-aIF2α (α-subunit of archaeal translation initiation factor 2 from Pyrococcus abyssi), N-terminally tagged version (natural protein, UniProt Q9V0E4 1-275, looked up)
chain: MPRRAREYPEEGEFVVATVKRIHNYGAFLELDEYPGKEAFMHISEVASTWVRNIRDYLKEGQKVVAKVIRVDPRKGHIDLSLRRVTQQQRKAKLQEFKRAQKAENLLKLAAEKLGKDFETAWREVWVPLEEEWGEVYAAFEDAAKDGIDVLKGHVPDEWLPVLKEIIDNYVEVPTVTIDAEFEITVPKPNGVEIIKEALIRARDRANKEKDVEVKFTYLGAPRYRIDITAPDYYKAEEVLESIAEEILRVIKEAGGEATLLRKEKRIKKVKKRKK
notes: aIF2 α-subunit from Pyrococcus abyssi, N-terminally tagged version; domains 1 and 2 (aIF2α-D12) and domain 3 (aIF2α-D3); the complex was purified on a Talon column by it; Stood in the assay as part of the aIF2 heterotrimer; source: cells overproducing the subunit, mixed with cells overproducing β and γ; heterotrimer purified (heating at 80 °C, Q-Hiload, S-Hiload, Superdex 200)
